Legend:
[1] = target: truncate haemagglutinin-neuraminidase (HN) 49–577 aa of NDV La Sota fused to the yeast GAL4 DNA-BD (Newcastle disease virus, La Sota, UniProt O90340, strain); experiment: two-hybrid; conditions: partners not purified
[2] = target: NDV HN glycoprotein in LaSota-infected DF-1 cells (Newcastle disease virus, La Sota, UniProt O90340, strain); experiment: immunostaining of cells or tissue; conditions: one partner purified
[3] = target: cell derived HN protein (pCAGGS-HN transfected 293 T cells) (Newcastle disease virus, strain not …, UniProt O90340); experiment: pull-down; conditions: one partner purified

B1: VHH1 fused to the Gal4 activation domain (pAD-VHH, pGADT7-Rec) (VHH)
VHH: QVQLVESGGGSVQAGGSLTLSCAASGATDSSSCMGWFRQAPGKEREGVANIDSDGNTNYAESVMGRFTISQDNAKNTLYLQMNTLKPEDTAMYRCAADPGGSWCVFLLARENALDAWGQGTLVTVSS
B1: binds [1].

B2: VHH3 fused to the Gal4 activation domain (pAD-VHH, pGADT7-Rec) (VHH)
VHH: EVQLVESGGGSVQAGGSLRLSCTASGYTRCMGWFRQAPGKEREGVAIVVTGSPYYTDSVKDRFTISLDNAKNTVYLQMNSLKPEDTATYYCAADRSILGCRLFRLYEANYRGQGTLVTVSS
B2: binds [1].

B3: VHH7 fused to the Gal4 activation domain (pAD-VHH, pGADT7-Rec) (VHH)
VHH: QVQLVESGGGLVQPGGSLRLSCAASGFAFSIYAMSWVRQAPGKGLEWVSAINSGGGSEYYADSVKGRFTISRDNAKNTLYLQLNSLKTEDTAMYYCAKSTSDCSYSDPWCYALADFGYWGQGTQVTVSS
B3: binds [1].

B4: VHH5 fused to the Gal4 activation domain (pAD-VHH, pGADT7-Rec) (VHH)
VHH: QVQLVESGGGLVQPGGSLKLSCAASGFTFSTNAMSWFRPAPGKERKWVSAIDAGGGNTYYDDSMKGRFTISKDNAKNTLYLQLNSLKSEDTAMYYCAKDPATVPTNRGQGTLVTVSS
B4: binds [1].

B5: VHH2 fused to the Gal4 activation domain (pAD-VHH, pGADT7-Rec) (VHH)
VHH: QVQLVESGGGSVQAGGSLKLSCAPPAGYIFSSCAMGWYRQAPGKEHELVSSIAINGTTVYADFVKGRFTIFQDNTKPTLYLQMNNLKTEDTAVYYCAAECTFSDHPYWGQGTLVTVSS
B5: binds [1].

B6: 6 × His-SUMO-VHH6 fusion protein (VHH)
VHH: QVQLVESGGGSVQAGGSLRLSCTASGFTFDDSDMVWYRQAPGNECEVVSYITSDGTTYHADSVKGRFTISQDNAKSTVYLQMNSLKPEDTAVYYCAADLVLESPSCEWSQGTLVTVSS
B6: binds [2]; binds [3].

B7: VHH6 fused to the Gal4 activation domain (pAD-VHH, pGADT7-Rec) (VHH)
VHH: B6 VHH
B7: binds [1].

B8: VHH4 fused to the Gal4 activation domain (pAD-VHH, pGADT7-Rec) (VHH)
VHH: QVQLVESGGGSVQAGGPLRLSCAVSGYSYSSVCMAWFRQAPGKEREAVAGIYTGGGNKYYADSVKGRFTISQDNTKNTLYLQMNSLKPEDTAMYYCAADLTVAACVPGRPQLTEEYNIWGQGTLVTVSS
B8: binds [1].

Reference: publication PMC4769559 (BMC Veterinary Research, 2016)
